In patent publication EP2353607A1:

What was measured:
[1] = target: integrin α5β1 on cultured endothelial cells (species of the cells not stated); assay: cell-based or functional assay
[2] = target: integrin αvβ3 on cultured endothelial cells (species of the cells not stated); assay: cell-based or functional assay

- endothelial cell migration (scratch-wound closure) in the presence of 15µg/ml RDD protein, as compared to untreated control culture [1]: 54.5%
- endothelial cell migration (scratch-wound closure) in the presence of 15µg/ml RDD protein, as compared to untreated control culture [2]: 54.5%
Substance: recombinant disintegrin domain (RDD) of metargidin (human ADAM-15)
